The series in a line: label from the status in PepcDB records.
With “MSLSSVKDFPKIKAIRSFIIGGVGSGGDYHNVKGGHWLIDSDISTPASKWEQYKKSRTSWGINVLGSFLVEIEATDGTVGFATGFGGPPACWLVHQHFERFLIGADPRNTNLLFEQMYRASMFYGRKGLPIAVISVIDLALWDLLGKVRNEPVYRLIGGATKERLDFYCTGPEPTAAKAMGFWGGKVPLPFCPDDGHEGLRKNVEFLRKHREAVGPDFPIMVDCYMSLNVSYTIELVKACLDLNINWWEECLSPDDTDGFALIKRAHPTVKFTTGEHEYSRYGFRKLVEGRNLDIIQPDVMWLGGLTELLKVAALAAAYDVPVVPHASGPYSYHFQISQPNTPFQEYLANSPDGKSVLPVFGDLFIDEPIPTKGYLTTADLDKPGFGLTINPAARAKLIPSDYLFKVPEIPQNLSTGKEIKSNEQPDKPNGTLDSLAAKVESLTTSTSSEGHHHHHH”, the protein production result was “not failed”.

Take “MSLSTFNRIHLVVLDSVGIGAAPDANNFSNAGVPDGASDTLGHISKTVGLNVPNMAKIGLGNIPRDTPLKTVPAENHPTGYVTKLEEVSLGKDTMTGHWEIMGLNITEPFDTFWNGFPEEIISKIEKFSGRKVIREANKPYSGTAVIDDFGPRQMETGELIIYTSADPVLQIAAHEDVIPLDELYRICEYARSITLERPALLGRIIARPYVGKPRNFTRTANRHDYALSPFAPTVLNKLADAGVSTYAVGKINDIFNGSGITNDMGHNKSNSHGVDTLIKTMGLSAFTKGFSFTNLVDFDALYGHRRNAHGYRDCLHEFDERLPEIIAAMKVDDLLLITADHGNDPTYAGTDHTREYVPLLAYSPSFTGNGVLPVGHYADISATIADNFGVDTAMIGESFLDKLIEGHHHHHH”: the protein production result is “not failed”.

As to “MSLSYVHTEIQNDALYITLDYPEKKNGLDAELGTSLLEAIRAGNNETSIHSIILQSKHRAYFSSGPRLEDLLICASDQSDVRLREVLHVLNHCVLEIFTSPKVTVALINGYAYGGGFNMMLACDRRIALRRAKFLENFHKMGISPDLGASYFLPRIIGYEQTMNLLLEGKLFTSEEALRLGLIQEICENKQELQERVKNYLKAVSEGYVPAIAATKKLLKGKAAEELKQQLEQETEELVALFKQTEIKKRLEALVEGHHHHHH”, the protein production result is “not failed”.

For the sequence “MSLTADPPACTVPAAGVSSTHKLVNGGAEKIVFKIKSSNNNEYRIAPVFGFVDPSGSKDVVITRTAGAPKEDKLVVHFASAPADATDAQAAFVAVAPAGTVTIPMSATA”, the protein production result is recorded as “not failed”.

As for “MSLTARSVVLSVLLGAHPAWATASELIQLTADFGIKETTLRVALTRMVGAGDLVRSADGYRLSDRLLARQRRQDEAMRPRTRAWHGNWHMLIVTSIGTDARTRAALRTCMHHKRFGELREGVWMRPDNLDLDLESDVAARVRMLTARDEAPADLAGQLWDLSGWTEAGHRLLGDMAAATDMPGRFVVAAAMVRHLLTDPMLPAELLPADWPGAGLRAAYHDFATAMAKRRDATQLLEVTEGHHHHHH”, the protein production entry is given as “not failed”.

Regarding “MSLTFPTLSPTQIIQYIHLGSFLNAHNVDYIHNNNISSILLVGIEVPSLFKDQCDILRLDIVSEEGHQLYDSIPNAIKFIIRSIQRKEGVLIISGTGVNKAPAIVIAFLMYYQRLSFINAFNKVQGLYPLIDIESGFILQLKLFEKKLEKMNSEGHHHHHH”, the protein production result was “not failed”.

Consider “MSLTNDERILSWNETPSKPRYTPPPGAIDAHCHVFGPMAQFPFSPKAKYLPRDAGPDMLFALRDHLGFARNVIVQASCHGTDNAATLDAIARAQGKARGIAVVDPAIDEAELAALHEGGMRGIRFNFLKRLVDDAPKDKFLEVAGRLPAGWHVVIYFEADILEELRPFMDAIPVPIVIDHMGRPDVRQGPDGADMKAFRRLLDSREDIWFKATCPDRLDPAGPPWDDFARSVAPLVADYADRVIWGTDWPHPNMQDAIPDDGLVVDMIPRIAPTPELQHKMLVTNPMRLYWSEEMEGHHHHHH”, for which the protein production entry is listed as “not failed”.

Regarding “MSLTNGEENEEVLFCEKAKLLIFDSDTKGYTSRGVGELKLLRKKDDKGKVRVLCRSEGMGHVLLNTSVVKSFKYQPIDADNENLIKWPIITDGKLETFIIKVKQKADGRRLVGAVADAQQAMEGHHHHHH”, the protein production result is given as “not failed”.

“MSLTPRNATVAVIGAGDYIGAEIAKKFAAEGFTVFAGRRNGEKLAPLVAEIEAAGGRIVARSLDARNEDEVTAFLNAADAHAPLEVTIFNVGANVNFPILETTDRVFRKVWEMACWAGFVSGRESARLMLAHGQGKIFFTGATASLRGGSGFAAFASAKFGLRAVAQSMARELMPKNIHVAHLIIDSGVDTAWVRERREQMFGKDALANPDLLMPPAAVAGAYWQLYQQPKSAWTFEMEIRPYGEGHHHHHH”: the protein production result is given as “not failed”.

On to “MSLTSVVFLNPGNSTETFWVSYSQFMQAAARDLGLDLRILYAERDPQNTLQQARELFQGRDKPDYLMLVNEQYVAPQILRLSQGSGIKLFIVNSPLTLDQRELIGQSRQNYSDWIGSMVGDDEEAGYRMLKELLHKLGPVPAGHGIELLAFSGLKVTPAAQLRERGLRRALAEHPQVHLRQLVYGEWNRERAYRQAQQLLKRYPKTQLVWSANDEMALGAMQAARELGRKPGTDLLFSGVNSSPEALQALIDGKLSVLEAGHFTLGGWALVALHDDALGLDARRLGGPDWQLSLFQALTPAQARQLLRLGDQVGTRVDFRGLSAQGKPDSYRYPFGLQLLLREGHHHHHH”, for which the protein production entry is listed as “not failed”.

With “MSLTTYDTQPSTLIRNAAAIMTGGRGTADDPSRVPGPDIRIVGDTIDAIGALAPRPGETIVDATDCVIYPAWVNTHHHLFQSLLKGEPAGLDATLTPWLAATPYRFRALFDERRFRLAARIGLIELARSGCATVADHNYVYYPGMPFDSSAILFEEAEKLGLRFVLLRGGATQTRQLEADLPTALRPETLDAYVADIERLAARYHDASPRAMRRVVMAPTTVLYSISPREMRETAAVARRLGLRMHSHLSETVGYQDSAYSMYGKSPVAFCGEHDWLGSDVWYAHLVKVDADEIALLAQTGTGVAHCPQSNGRLGSGICPVREMADAGVPVSIGVDGAASNEAADMISEVHMTWLAQRARLGMLAQPAYRGGSFEGGAGAASIAEVIHWGTAGGARVMGLDEVGKVAVGYAADIAVYRLDDPRYFGLHDPAIGPVASGGRPSVMALFSAGKRVVVDDLIEGVDIKELGGEARRVVRELLREVVVEGHHHHHH”, the protein production result is “not failed”.

Turning to “MSLVLVDHPRPGVALITLNRPERMNSMAFDVMVPLKEALQKVTYDNAVRVVVLTGAGRGFSSGADHKSAGTVPHVEGLTRPTYALRSMEILDEVILALRRLHQPVIAAVNGPAIGGGLCLALAADIRVASTSAYFRAAGINNGLTASELGLSYLLPRAIGSSRAFEIMLTGRDVTAEEAERIGLVSCQVPEEQLLDTCYAIAARIAAFSRPGIELTKRTLWSGLDAGSLEGHMQAEGLGQLFVRLLTANFEEAVAARAERRPPVFTDDK”, the protein production result is “failed”.

With “MSLVSLPGLPAMISEISKRNNLPTTAVEEALREALLKGYERFRRSQLMGHQFPEEYFNNFEVELDTEEEGFRVLSTKRIVEEVENSDQQISLKEVLEVAEEAQLGDEVVLDVTPEQKDFGRMAAIQTKQVLLQKLRDQQRKIIQEEFQDLEGTVLNARALRFERQSIIVAVQSSFGQPEVEAELPKREQLPNDNYRANSTFRVYLKRVREGSQRGPQLVVSRAAAGLVVDLFSVEVPEIEEEVVRIVAVAREAKPPSPSVGPRTKIAVDTLERDVDPVGACIGARGSRIHAVVNELRGEKIDVIRWSPDPATYIAQALSPARVDQVYLIHAEERHALVIVAEDQLSLAIGKEGQNVRLAARLTGWKIDIKDPETYARDKEAIEQSILERAAASAQARAEREAAEQEAQAKLEAEMAALEAEEAEELEETPEAIAEVEEEVEEWDQDQGPELGEEEELSLEHHHHHH”, the protein production entry is given as “not failed”.

Turning to “MSLVTYQTIKVRFQASVCYITFHRPEANNTINDTLIEECLQVLNQCETSTVTVVVLEGLPEVFCFGADFQEIYQEMKRGRKQASSQEPLYDLWMKLQTGPYVTISHVRGKVNAGGLGFVSATDIAIADQTASFSLSELLFGLYPACVLPFLIRRIGRQKAHYMTLMTKPISVQEASEWGLIDAFDAESDVLLRKHLLRLRRLNKKGIAHYKQFMSSLDHQVSRAKATALTANQDMFSDPQNQMGIIRYVETGQFPWEDQEGHHHHHH”, the protein production entry was “not failed”.

For “MSLYDLKPNEKGRIKDIKGDERLSKRLSALGFIEGTEVEVKMMAPLGDPILVNVRGFNIAIRKNDAKNIFLKEAKLEHHHHHH”, the protein production result is given as “not failed”.

Regarding “MSLYTILVVDDSPMIVDVFVTMLERGGYRPITAFSGEECLEALNATPPDLVLLDIMMEPMDGWETLERIKTDPATRDIPVLMLTAKPLTPEEANEYGSYIEDYILKPTTHHQLYEAIEHVLARRHSIAADEGHHHHHH”, the protein production entry was “not failed”.

For the sequence “MSMKRSREESQGGGNHNRFVDEGPRLNLPLTKTPELINKIESYLKVHYTCPHQQTENSSKTSTLPKSPEKLKAMNFPISTIKIGDCVFVAKNPDDIVAKFYFAKKKLLWEFLFGEPVANMPRLKSKIEIQWNDVSSFEESINSRDETGILKIELKKRPTFFTETNPQAGKHTQWKQLDYDFTGDQASYYRRHTLHFPPGVLQKNLEKLLTDSFWSKLYKVPFPVHESLYFDIGFENNNSSNGHSKTVGFNVNNGLQHDFSQVRDLKERKKIITLIGIGGVGEGEGNFSMANGGWQRNSYSHVNSLNYNTDNGLLGMQAIPPSSQVANEHYNNTQNDYTGSQFGYRMNQDEIQKMQRIGKILESQAYAVPDTQTKLTSSGMNNGPMYPPAGSYLESRLLEEWYEHTRRFQQ”, the protein production entry was “not failed”.

As for “MSMLKPSGLKAPTKILKPGSTALKTPTAVVAPVEKTISSEKASSTPSSETQEEFVDDFRVGERVWVNGNKPGFIQFLGETQFAPGQWAGIVLDEPIGKNDGSVAGVRYFQCEPLKGIFTRPSKLTRKV”, the protein production entry is recorded as “not failed”.

For the sequence “MSMPILLLVAVILAIYAVAYLFYGRNILQEKVVRASPERETPAIAKFDGVDYVPAHRFVLFGHHFASIAGAGPIVGPAIAMAYGWLLPLVWVLFGNVFMGAVHDYLSLMASVRYGGISIVSVGENLMGRKARYLFLIYVLFTLILVYAAFASIAASLFARDPRVATLSILFMPLALLLGIMMYRMGLGMGPSTVITVVLVIAAFVYSYNHGIVIGTFDPSLPPGEGGWVAYHRWVIILGLYALLAASLPVWYLLQPRDYLNAYILWTGLGLAAIAAILLGTQSLKGPAYTSFQPNIIAGQPTPFWPAIPLIIACGSLSGFHSLVASGTTSKQLASELDALFVGYGAMLLEGALSGLAVIIPISFAWNAPELIQKGVIENNMLDLAAVPRYAVGYGYTLAKTFEMFGVGFDTGYSFFTLFASLMLSMYVLTTLDTGTRLARFAWQELFDWLANVDKNLYSIVTNKWVSSLAVVIIGSALAYPVLEIGAGYKAAYNVVWPAFAGANQMLAAIALLTSALWVYGVLNVRGGTGLLILLPSLFLWVTVTAGLTWWLMVILPVLPAIQQFGAGSMILFTLLLSLLLFALFIINFNKLSKQAGASQQAQA”, the protein production result was “failed”.

Regarding “MSMQEMVTISIVTYNSRYIFNVLDQLKAELGTDSIYDIHIYDNHSETAYLEKLTTYEPFITIHRAEENQGFGHGHNQVLFNASTKYAIIFNPDVLVTKDVLDRLLNRIKIDKNIAVVSPKVLNEDGTTQYLVRQKLDVFDYMLRFIPFQFVKKIFDKRLSIYECRDLSDTETTDIKMGSGCFMLIDREKFVEIGGFDERFFMYFEDNDLCLRFGKAGYRILYTPFETVVHMYEKGAHKSRKLFKIFMQSMGKFFNKWGWRFFLEHHHHHH”, the protein production entry is listed as “not failed”.

With “MSMYNMDLDKVIRKINKKGARTVGLQFPEGLKMQAVKIAKAIESQTPATVIISGDPCFGACDVSDYKMKGSVDLIVHYGHTPLPLKYEVPTLFIEAFSNIDVKKDLEKCLEKLEDYSKIALVTTTQHLHLLNEIKDYLEDNGKEVVLGSSKNTKKGQVLGCNFSSIKNLDAEVYLFIGSGNFHPLGIYLFTKSPVLALDPYNSEIRDISAFADRILRIRFARITKAREAEKWGIIVSSKEGQYRMKLAKEIKKILEDNKMEAYIIMADNINPDILLPYMELDAFVVSACPRIAIDDSQMYKKPLLTPQELEIVLNKRQWENYQLDEILFHERYK”, the protein production result was “failed”.

The values above are taken from a protein production outcome set (Wang et al. 2014).
